Reference: patent US20160340704A1, “METHOD OF MAKING A BENZYLISOQUINOLINE ALKALOID (BIA) METABOLITE, ENZYMES THEREFORE” (VALORBEC SOCIÉTÉ EN COMMANDITE, priority 2014, published 2016)

B1: EX56: CYP719 from Chelidonium majus, SEQ ID NO: 335 (protein, listed as Chelidonium majus)
chain: MLLILIMDFRNSRSNLNPAKMEELMSDPWIITATTLAVVILLTTILRRKSSSMKWPKGPKTLPIIGNMHLFGGTDLHVVLYNIAKVYGNVMTIWIGSWRPVIVISDIERAWEVLVNKSSDYSARDMPEITKLISSDWKTISTSDAGAFWTNLRKGLQNVALSPHNLASQFQFQESDIKKLIETIKEEAAVNNGIVKPLDHLKKAMVRLISRLVFGQDFDNDEYVEGMHHAIEELIRVSGYARLAEAFYYAKYLPSHKKAVRDVEEANRRVQKLVRPFLSLNPPTNTYLHFLRSQNYSEEVIIFAIFEAYLLGVDSTSSTTAWALAFLIREPNVQEKLYQELKNFTVKNGRDMLKVEDINKLPYLQATIKETMRMKPIAPLAIPHKACRDTSLKGSKIDKGTRVMVNIYALHHNEKIWKEPFKFMPERFLQTEGENGKAMEQSFLPFSAGMRICAGMELGKLQFNFALANLVNAFKWSCVADGVLPDMSDQLGFVLVMKTPLEARITSRC
B2: EX76: CYP719 from Nandina domestica, SEQ ID NO: 355 (protein, listed as Nandina domestica)
chain: MEESFWIVSATIVVVFVIATMFRKSSSISSKTEWPAGPKKLPVIGNLHQLGGDVLHVVLANLAKVYGTVMTVWVGSWKPMIVISDIDRAWEVLVNKSSDYSGRAMPEITEIISAKGKTISTSDSGPHWSNLRKGLQNVALSPHNIAAQSRFQESDITKMIKTLKQEAASNNGIVQPLDHLKKSTVRLISRLIFGQDFDDDEYVEAMHLAVEELIRVSGYARLAEAFYYAKYLPSHKRAVSEVWEANRRVKRIVKPRLSANPPPNCYLHFLSSQDYSEEMIIFAIFEAYLLGVDSTSSTTAWALGFLIREPKVQERLYQELKNCAGENGLIKVEDINKLPYLQAVLKETMRMKPIAPLAIPHKAVRETSLAGNKVEPGTRVMVNLYAIHHNPKVWIDPHKFKPERFLQGEENGGGNLKLMEQSLLPFSAGMRTCAGMELGKLQFGFSLANLVNAFQWDCAKKGMFPDMSDLLGFVLLMKTPLQAKIVPRGSPSINGY
B3: EX42: CYP719 from Argemone mexicana, B1NF19.1, SEQ ID NO: 321 (protein, listed as Argemone mexicana)
chain: MEEKIMTNNSPWILTSSTTTTTTILLSLLFTIFIILRRNKSSSSKMVWPTGPKTLPIIGNMNILGGTALHVVLHNLAKTYGNVMTIWIGSWRPVIVVSDIDRAWEVLVNKSSDYSARDMPEITKLATADWKTISSSDSGPFWTNLRKGLQNVALSPQNLSSQSKFQERDIIKTIQNLKEEAKMNNGIVKPLDHLKKAMVRLISRLIYGQDFDNDEYVEEMHHTIEELIRVSGYARLAEAFYYAKYLPSHKKAVREVLQANQRVQNLVRPLLSLNSPTNTYLHFLRSQNYEDEVIIFAIFEAYLLGVDSTSSTTAWALAYLIREPNVQEKLYEELKNFTNDNDRKMVKFEDLNKLQYLQAVVKETMRMKPIAPLAIPHKACRETSLMGRKVNQGTRVMVNIYALHHNQNVWKEPYKFNPERFLQKNQDGVDGKAMEQSLLPFSAGMRICAGMELGKLQFSFALANLVNAFKWSCVSDGVFPDMSDQLGFVLLMKTPLEAGIVPRM
B4: EX67: CYP719 from Glaucium flavum, SEQ ID NO: 346 (protein, listed as Glaucium flavum)
chain: MEMKSSVVFSYPAMEELFKSNPWVITGTTLAVLILMTTMFRKKSLSMKWPKGPKTLPIIGNMHLLGGTNLQVILHNMSKVYGNVMTIWIGSWRPVIVVSDIERAWEVLVNKSSDYSGRDMPEITKIISADWKTISTSDSGPHWTNLRKGLQNVALSPHNLAAQFQFQERDICKLIETLKEEAKLNNGIVKPLDHLKKATIRLISRLVFGQDFDNSKYVEDMHHAIEELIRVSGYARLADAFYYAKYLPSQKKAVRDVEEAQRRVQRLVRPFLSLNPPTNCYLHFLRSQNYSDEVIIFAIFEAYLLGVDSTSSTTAWALAFLVREPNVQEKLYQELKNFTAKNGREMLKVEDINKLPYLQAVIKETMRMKPIAPLAIPHKACRDTSLKGRKIDKGTQIMVNIYALHHNENVWKEPFKFMPERFLQTDQDVNGKAMDQSLLPFSAGMRICAGMELGKLQFSFSLANLLNTFQWSCVADGVLPDMSDQLGFVLLMKTPLEARITPRC

tested on: cheilanthifoline; assay: CYP719 Ring A closure of cheilanthifoline to stylopine in GC1333; format: cell-based, Saccharomyces cerevisiae
Method: FIG. 11A-B: showing conversion of (S)-cheilanthifoline (FIG. 11A) or (S)-nandinine (FIG. 11B) to (S)-stylopine by purchased CYP719s. Plasmids harboring CYP719s were transformed into GC1333 containing an integrated PsCPR. Strains were incubated with the appropriate BIA overnight, and then total BIAs were extracted and total molar ratios were compared. PsSPSΔN was used as a control.
The 10 CYP719s with 95% activity on Ring A of scoulerine and the 10 CYP719s with activity on Ring B of scoulerine were tested for activity on cheilanthifoline and nandinine, respectively, in order to generate a branched stylopine synthesis pathway. […] CYP719s PsCFS and EX101, capable of converting >98% of scoulerine to cheilanthifoline and nandinine, respectively, were incubated with scoulerine. After 16 h, cells were pelleted and the supernatant fraction was collected. The supernatant was then applied to fresh yeast strains in order to supplement them with either TE containing nandinine or cheilanthifoline as necessary.

Conversion of cheilanthifoline to stylopine, > 98%:
B1
B2
B3
B4
